Reference: patent US20240269292A1
Non-standard residues stand in square brackets, D forms with d. No end group written: not given here. *: point of attachment. Dmt = Cc1cc(O)cc(C)c1C[C@H](N)C(=O)O; stearyl ester = CCCCCCCCCCCCCCCCCCO*

Key:
[1] = Fluorescence microscopy of complexation of FITC-labeled drug with particulates; format: physicochemical; settings: for Fluorescence after carboxyesterase: carboxyesterase 0.1 μg/mL
Description: (§1) As described herein, formation of MTT-prodrug-complex particulates can be verified experimentally by direct visualization. For example, the MTT-prodrug EY005-stearyl was fluorescently labeled with fluorescein isothiocyanate (FITC) and admixed with different complexation agents. The resultant mixture was then visualized under direct fluorescence microscopy. […] In contrast, FITC-labeled EY005-stearyl was not observed to form drug-complex particulates with silica microbeads (see FIG. 24A-24D), indicating the process of complexation and drug-complex particulate formation is highly dependent on favorable noncovalent interaction between drug and complexation agent.
(§2) Further, this noncovalent interaction is specifically mediated by the conjugation moiety of the MTT-prodrug. FITC-labeled EY005-stearyl that had been admixed with complexation agent was treated with an aqueous solution of carboxyesterase (0.1 μg/mL) to hydrolyze the ester bond of the prodrug, releasing the fluorescent peptide.
as §1, with “(FIG. 24C),” for “(see FIG. 24A-24D),”

Albumin [2] = target: Albumin (Homo sapiens, UniProt P02768); assay: as above; format: binding
Description: as §1, §2
as §1, with “(FIG. 24C),” for “(see FIG. 24A-24D),”

[3] = tested on: T1, EY005-stearyl prodrug (H-d-Arg-DMT-Lys-Phe(-O)-stearyl)
T1 sequence: RYKF

[4] = format: physicochemical; settings: EY005-stearyl solubilized in methyl laurate, incubated 1 hour, HPLC
Description: Kd values were calculated as [unbound]/[bound] fraction prodrug under each condition.

Albumin [5] = assay: pull-down by centrifugation in methyl laurate after 1 hour incubation, HPLC quantification
Albumin [6] = assay: pull-down by centrifugation in methyl laurate after 1 hour incubation, HPLC quantification; unitless ratio

Molecule: FITC-labeled EY005-stearyl prodrug: MTT-prodrug EY005-stearyl fluorescently labeled with fluorescein isothiocyanate (FITC) ([dR][Dmt]KF-{stearyl ester}; also: FITC label, site not given here)
- Fluorescence after carboxyesterase ([1]; cyclodextrin): reduced levels of fluorescence
- Fluorescence after carboxyesterase ([1]; lecithin): reduced levels of fluorescence
- Fluorescence after carboxyesterase ([1]; magnesium stearate): reduced levels of fluorescence
- Complexation by fluorescence ([1]; silica microbeads): no evidence of complexation
- Fluorescence after carboxyesterase ([1]; silica microbeads): did not alter extremely low levels of fluorescence
- Complexation by fluorescence (Albumin [2]): bright fluorescence
- Fluorescence after carboxyesterase (Albumin [2]; carboxyesterase 0.1 μg/mL): reduced levels of fluorescence

Molecule: carboxyesterase
- cleavage of the prodrug ester bond (HPLC) [3]: Incubation of EY005-stearyl with carboxyesterase produced rapid cleavage of the prodrug ester bond, releasing EY005

Molecule: OC[C@H]1O[C@@H]2O[C@H]3[C@H](O)[C@@H](O)[C@@H](O[C@H]4[C@H](O)[C@@H](O)[C@@H](O[C@H]5[C@H](O)[C@@H](O)[C@@H](O[C@H]6[C@H](O)[C@@H](O)[C@@H](O[C@H]7[C@H](O)[C@@H](O)[C@@H](O[C@H]8[C@H](O)[C@@H](O)[C@@H](O[C@H]9[C@H](O)[C@@H](O)[C@@H](O[C@H]1[C@H](O)[C@H]2O)O[C@@H]9CO)O[C@@H]8CO)O[C@@H]7CO)O[C@@H]6CO)O[C@@H]5CO)O[C@@H]4CO)O[C@@H]3CO [Cyclodextrin gamma]
- μg EY005-stearyl complexed per mg complexation agent [4]: 2.3 μg per mg complexation agent

Molecule: FITC-labeled EY005 native peptide: EY005 native peptide labeled with fluorescein isothiocyanate ([dR][Dmt]KF-OH; also: FITC label, site not given here)
- Complexation by fluorescence ([1]; silica microbeads): interacted with silica microbeads creating fluorescent round figures
- Complexation by fluorescence (Albumin [2]): minimal complexation

B1: EY005-stearyl prodrug (H-d-Arg-DMT-Lys-Phe(-O)-stearyl) (peptide)
peptide: H-[dR][Dmt]KF-{stearyl ester}
modifications: also: DMT isomer not given here
- µg EY005-stearyl complexed per mg complexation agent (binding capacity) (µg per mg complexation agent) (Albumin [5]): 4.5
- Calculated Kd ([unbound]/[bound] fraction of prodrug) (Albumin [6]): 1.34
